According to patent US20220033501A1 (SHANGHAI PHARMAEXPLORER, published 2022):
Positions count from the first letter of the chain named.

B1: 34B6D8 (TIM-3 antibody purified from hybridoma, chimeric antibody of Example 2) (antibody, V domains shown)
VH: EVQLVESGGGLVQPGGSLRLSCAASGFTFSTYWMTWVRQAPGKRLEWVANIKQGGGDKYYVDSVKGRFTISTDNAKNSLYLQMNSLRAEDTAVYYCARGSNWFDPWGQGTLVTVSS
VL: EIVMTQSPATLSMSPGERATLSCRASQSVYDNLAWYQQKPGQAPRLLIYGASTRATGIPARFSGSGSGTEFTLTISSLQSEDFALYYCQQYTHWPITFGQGTRLEIK
notes: From hybridoma of Harbour H2L2 transgenic mice: human variable regions, rat constant regions
B2: 7A4F10 fully human TIM-3 antibody (human IgG4, kappa) (antibody, V domains shown)
VH: EVQLLESGGGLVQPGGSLRLSCAASGFTFRTHLISWVRQAPGKGLEWVAAITGSGGSTYYADSVKGRFIISRDNSKNTLFLQMNSLRAEDTAVYYCAKDGGSGSYDDFWGQGTLVTVSS
VL: ETVLTQSPVTLSLSPGERATLSCRASQSVGSYLAWYQQKPGQAPRLLIYDASNRATGIPARFSGSGSGTDFTLTISSLEPEDFAVYYCQQRSNWPPTFGQGTKVEIK
B3: 7A4F10 (TIM-3 antibody purified from hybridoma, chimeric antibody of Example 2) (antibody, V domains shown)
VH: B2 VH
VL: B2 VL
notes: as for B1
B4: 57F4E5 fully human TIM-3 antibody (human IgG4, kappa) (antibody, V domains shown)
VH: EVQLVESGGGLVQPGGSLRLSCAASGFTFSSYWMSWVRQAPGKGLEWVANIKQDGSEKYYVDSVKGRFTISRDSAKNSLYLQMNSLRAEDTAMYFCARDSNFFDYWGQGTLVTVSS
VL: ETVMTQSPATLSVSPGERATLSCRASQSVSSNLAWYQRKPGQAPRLLIYFSSTRATGIPARFSGSGSGTEFTLTISSLQSEDFAVYYCQQYNNWPLTFGGGTKVEIK
B5: 39E5H1 (TIM-3 antibody purified from hybridoma, chimeric antibody of Example 2) (antibody, V domains shown)
VH: B1 VH with T31S, T35S, R44G, Q53R, G56S, D57E, K58R, T72G, L79V
VL: B1 VL with I2T, T10I, M13V, D31S, P40L, G50D, L85V, T92N, H93N
notes: as for B1
B6: 57F4E5 (TIM-3 antibody purified from hybridoma, chimeric antibody of Example 2) (antibody, V domains shown)
VH: B4 VH
VL: B4 VL
notes: as for B1
B7: 134H3G6 fully human TIM-3 antibody (human IgG4, kappa) (antibody, V domains shown)
VH: EVQLVESGGGLVQPGGSLRLSCAASGFTFSNSWMTWVRQAPGKGLEWVANIKQAGTEKYYVDSVKGRFTISRDNAKNSLYLQMNSLRAEDTAVYYCNSGSNYFDYWGQGTLVTVSS
VL: B4 VL with T2I, S26R, S28N, V29F, S30Y, R38Q, F50G, S51A
B8: 18D2H2 (TIM-3 antibody purified from hybridoma, chimeric antibody of Example 2) (antibody, V domains shown)
VH: B1 VH with G10D, K43R, R44G, G54D, G56S, D57A, I70L, T72R, N74D, P105Y
VL: B4 VL with S26N, S28N, S30Y, R38Q, F50D, S51A, I58F
notes: as for B1
B9: 134H3G6 (TIM-3 antibody purified from hybridoma, chimeric antibody of Example 2) (antibody, V domains shown)
VH: B7 VH
VL: B4 VL with T2I, S26R, S28N, V29F, S30Y, R38Q, F50G, S51A
notes: as for B1
B10: 18D2H2 fully human TIM-3 antibody (human IgG4, kappa) (antibody, V domains shown)
VH: B1 VH with G10D, K43R, R44G, G54D, G56S, D57A, I70L, T72R, N74D, P105Y
VL: B4 VL with S26N, S28N, S30Y, R38Q, F50D, S51A, I58F
B11: 215A8F2 fully human TIM-3 antibody (human IgG4, kappa) (antibody, V domains shown)
VH: QVQLQQWGAGLLKPSETLSLTCTVYGGSFSGYYWNWIRQPPGKGLEWLGEINHSGSTNYNPSLKRRVTISVDTSKNQFSLKLSSVTAADTAVYYCARVYYYGPFDFWGQGTLVTVSS
VL: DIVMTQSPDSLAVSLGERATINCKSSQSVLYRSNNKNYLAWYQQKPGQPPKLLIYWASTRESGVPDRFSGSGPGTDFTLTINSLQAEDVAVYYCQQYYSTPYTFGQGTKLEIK
B12: 215A8F2 (TIM-3 antibody purified from hybridoma, chimeric antibody of Example 2) (antibody, V domains shown)
VH: B11 VH
VL: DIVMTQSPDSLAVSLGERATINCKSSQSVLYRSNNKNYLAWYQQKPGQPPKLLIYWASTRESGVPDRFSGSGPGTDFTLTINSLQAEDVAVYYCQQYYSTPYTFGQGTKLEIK
notes: as for B1

Experiments:
[1] = target: T1, monkey TIM-3 protein with hFc tag (cTIM-3-hFc protein) (monkey; human); assay: ELISA, coated cTIM-3-hFc; antibody 0.0007 nM
T1 construct: Made in HEK293 cells; also called monkey TIM-3 extracellular domain protein; not shown: human IgG Fc fragment (hFc) of the pCpC vector
T1 chain: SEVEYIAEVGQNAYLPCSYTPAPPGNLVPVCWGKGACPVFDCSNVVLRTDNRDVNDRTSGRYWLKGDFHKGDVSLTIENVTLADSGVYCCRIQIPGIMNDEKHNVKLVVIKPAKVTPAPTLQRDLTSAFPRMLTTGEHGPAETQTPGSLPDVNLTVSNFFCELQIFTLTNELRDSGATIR
Excerpt: (§1) The amino acid sequence 22-200 of the extracellular domain of the human TIM-3 protein described in the step of Example 1 (as shown in SEQ ID NO. 71 in the sequence listing) was cloned into a pCpC vector having a human IgG Fc fragment (hFc), and transfected into HEK293 cells. The cell culture medium was collected, and purified to obtain the human TIM-3 protein with hFc tag (herein referred to as hTIM-3-hFc protein). The amino acid sequence 22-201 of the extracellular domain of the monkey TIM-3 protein (as shown in SEQ ID NO. 72 in the sequence listing) was cloned into a pCpC vector having a human IgG Fc fragment (hFc), and transfected into HEK293 cells. The cell culture medium was collected, and purified to obtain the monkey TIM-3 protein with hFc tag (herein referred to as cTIM-3-hFc protein). […] The cell culture medium was collected, and purified to obtain the murine TIM-3 protein with hFc tag (herein referred to as mTIM-3-hFc protein). Purified human, monkey, and mouse TIM-3 extracellular domain proteins (hTIM-3-hFc, cTIM-3-hFc, and mTIM-3-hFc) were diluted with PBS to a final concentration of 1.0 μg/ml and then added to a 96-well ELISA plate with 100 μl per well. The plate was sealed with plastic film and incubated overnight at 4° C. The plate was washed 4 times with the plate washing solution (PBS+0.01% Tween20) on the next day, and added with the blocking solution (PBS+0.01% Tween20+1% BSA) and sealed at room temperature for 1-2 hours. The blocking solution was poured out. 50-100 μl of the antibody sample to be tested was added to each well. The plate was incubated at 37° C. for 1-2 hours, and washed 2-3 times with plate washing solution (PBS+0. 01% Tween20). HRP (horseradish peroxidase) labeled secondary antibody was added. The plate was incubated at 37° C. for 1-2 hours, and washed 2-3 times with plate washing solution (PBS+0. 01% Tween20). […] of TMB substrate was added to each well. After incubated at room temperature for 15-30 minutes, the plate was added with […] stop solution (1.0N HCl) to each well. An ELISA plate reader (TiterMax 384plus, Molecular Device) was used to read the A450 nm value.

[2] = target: T2, murine TIM-3 protein with hFc tag (mTIM-3-hFc protein) (mouse; human, UniProt Q8VIM0 29-191); assay: ELISA, coated mTIM-3-hFc; antibody 66.667 nM
T2 construct: Made in HEK293 cells; also called mouse TIM-3 extracellular domain protein; not shown: human IgG Fc fragment (hFc) of the pCpC vector
T2 chain: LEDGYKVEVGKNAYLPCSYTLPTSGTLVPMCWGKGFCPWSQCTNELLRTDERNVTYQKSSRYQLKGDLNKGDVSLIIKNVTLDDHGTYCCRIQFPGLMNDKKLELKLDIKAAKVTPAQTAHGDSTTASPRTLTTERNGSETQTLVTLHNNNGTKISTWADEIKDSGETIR
Excerpt: as §1

[3] = target: T2, murine TIM-3 protein with hFc tag …; assay: ELISA, coated mTIM-3-hFc; antibody 0.0667 nM
Excerpt: as §1

[4] = target: T3, human TIM-3 protein with hFc tag (hTIM-3-hFc protein) (human, UniProt Q8TDQ0 22-200); assay: ELISA, coated hTIM-3-hFc; antibody 0.6667 nM
T3 construct: also called immunogen 1; human TIM-3 extracellular domain protein; not shown: human IgG Fc fragment (hFc) of the pCpC vector
T3 sequence: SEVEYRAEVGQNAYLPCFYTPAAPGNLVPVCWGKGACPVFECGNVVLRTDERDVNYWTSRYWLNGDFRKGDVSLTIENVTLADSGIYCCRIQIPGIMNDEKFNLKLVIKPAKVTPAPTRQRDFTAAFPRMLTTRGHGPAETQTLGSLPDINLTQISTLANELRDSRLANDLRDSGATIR
Excerpt: as §1

[5] = target: T4, human TIM-3 on CHOK1 stable cell line (CHOK1-hTIM-3) (human, UniProt Q8TDQ0 22-301); assay: FACS, CHOK1-hTIM-3 cells, 0.064 nM antibody
T4 sequence: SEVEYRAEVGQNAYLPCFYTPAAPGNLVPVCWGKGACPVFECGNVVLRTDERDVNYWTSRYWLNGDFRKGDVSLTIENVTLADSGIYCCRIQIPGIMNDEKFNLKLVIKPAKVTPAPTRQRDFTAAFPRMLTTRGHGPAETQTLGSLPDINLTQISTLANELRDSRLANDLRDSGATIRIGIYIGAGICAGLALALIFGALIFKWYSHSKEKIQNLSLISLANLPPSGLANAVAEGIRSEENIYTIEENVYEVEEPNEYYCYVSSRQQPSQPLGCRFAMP

[6] = target: T5, monkey TIM-3 extracellular domain protein with hFc tag (cTIM-3-hFc) (monkey); assay: ELISA, coated monkey TIM-3 ECD protein, 0.0067 nM antibody
T5 construct: not shown: human IgG Fc fragment (hFc) of the pCpC vector
T5 chain: T1 chain

[7] = target: T6, murine TIM-3 extracellular domain protein with hFc tag (mTIM-3-hFc) (mouse, UniProt Q8VIM0 29-191); assay: ELISA, coated mouse TIM-3 ECD protein, 0 nM antibody
T6 construct: also called mouse TIM-3 extracellular domain protein; not shown: human IgG Fc fragment (hFc) of the pCpC vector
T6 chain: T2 chain

[8] = target: T7, monkey TIM-3 on CHOK1 stable cell line (CHOK1-cTIM-3) (monkey); assay: FACS, CHOK1-cTIM-3 cells, 0.32 nM antibody
T7 chain: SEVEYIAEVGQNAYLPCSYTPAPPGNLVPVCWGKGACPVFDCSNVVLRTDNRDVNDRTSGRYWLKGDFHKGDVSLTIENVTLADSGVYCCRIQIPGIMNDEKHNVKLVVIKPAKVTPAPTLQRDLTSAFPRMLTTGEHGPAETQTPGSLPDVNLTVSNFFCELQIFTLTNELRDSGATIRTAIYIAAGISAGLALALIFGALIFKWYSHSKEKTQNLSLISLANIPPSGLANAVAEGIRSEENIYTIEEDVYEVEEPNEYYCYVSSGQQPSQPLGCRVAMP

| Binder | OD450 [1] | OD450 [2] | OD450 [3] | OD450 [4] | Mean fluorescence intensity [5] | OD450 [6] | OD450 [7] | Mean fluorescence intensity [8] |
| --- | --- | --- | --- | --- | --- | --- | --- | --- |
| B1 | 0.61 | 1.1 | 0.68 | 3.41 | – | – | – | – |
| B2 | – | – | – | – | 28.8 | 0.18 | 0.23 | 52.7 |
| B3 | 0.55 | 0.66 | 0.62 | 0.86 | – | – | – | – |
| B4 | – | – | – | – | 23.7 | 0.32 | 0.24 | 80.6 |
| B5 | 0.61 | 0.9 | 0.68 | 3.41 | – | – | – | – |
| B6 | 0.64 | 0.74 | 0.64 | 3.31 | – | – | – | – |
| B7 | – | – | – | – | 34.5 | 0.3 | 0.22 | 134 |
| B8 | 0.54 | 0.85 | 0.67 | 1.33 | – | – | – | – |
| B9 | 0.55 | 0.7 | 0.65 | 0.69 | – | – | – | – |
| B10 | – | – | – | – | 32.9 | 0.33 | 0.22 | 127 |
| B11 | – | – | – | – | 20.5 | 0.33 | 0.21 | 92.5 |
| B12 | 0.55 | 0.77 | 0.67 | 3.06 | – | – | – | – |
